Assay results as given in paper PMC12396273.

Columns and labels:
Assay in all cases: fluorescence polarisation
[1] = molecular target: Human BCL-XL removing the C-terminal 22 residues, C-terminal 6×His-tag (human) (UniProt Q07817)
[2] = molecular target: Human BCL-2 removing the C-terminal 32 residues, C-terminal 6×His-tag (human) (UniProt P10415)
[3] = molecular target: FITC-labelled HRK-BH3 peptide

UniProt Q07817, sequence (Q07817 1-211): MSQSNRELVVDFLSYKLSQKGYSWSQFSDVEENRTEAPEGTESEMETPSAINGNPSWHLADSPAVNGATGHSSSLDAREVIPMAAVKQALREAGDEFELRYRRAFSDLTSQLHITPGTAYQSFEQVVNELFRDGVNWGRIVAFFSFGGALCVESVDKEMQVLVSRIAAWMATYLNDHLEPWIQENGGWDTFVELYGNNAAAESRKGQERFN

| Ki [1] [nM] | Ki [2] [nM] | EC50 [3] [nM] | Substance |
| --- | --- | --- | --- |
| 1.8 | 36 |  | wild-type HRK-BH3 peptide (HRK-WT) |
|  |  | 30 | Human BCL-2 removing the C-terminal 32 residues, C-terminal 6×His-tag (from UniProt P10415 1-207) (domain or fragment) |
